± gives the standard deviation of the averaged measurements.
system: ATP; assay: switch fluorescence ratio, 500 uM ATP over buffer (Cy3 cluster intensity, sum of 5 cycles each) (fold (ratio)); higher = stronger signal-on switching upon ATP binding; sequences stand for … in TCGTCGGCAGCGTCAGATGTGTATAAGAGACAGTTTTTTTTTTTTTTTTTTTTTTTTT…TC; settings: aptamer strand: ATP DNA aptamer (quencher-CACCTGGGGGAGTATTGCGGAGGAAGG + anchor), 100 nM annealed; ATP concentration: 500 uM
How it was run: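 Cy3-labelled switching-strand clusters on a modified Illumina MiSeq flow-cell were annealed to 100 nM quencher-labelled ATP aptamer and imaged first in selection buffer, then after 15 min with 500 uM ATP at 22 °C. NaOH stripping and re-annealing separated each of five buffer/ATP cycles, and clusters outside 100-1000 RFU were excluded. The fluorescence ratio sums target-cycle Cy3 intensity over buffer-cycle Cy3 intensity per cluster and averages it per switch-domain sequence.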
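Further: ATP exposure 15 min at 22 °C before imaging.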

Sequence | switch fluorescence ratio
TGAAAGTTTT | 0.971 ± 0.025
TGAAATATTT | 1.21 ± 0.21
TGAAATGATC | 1.001 ± 0.0098
TGAAATGGGT | 1.17 ± 0.24
TGAACCAAGC | 1.08 ± 0.011
TGAACCGCGA | 2.96 ± 0.18
TGAACGGGGG | 1.02 ± 0.049
TGAACTAAAT | 1.01 ± 0.024
TGAACTTGGT | 0.929 ± 0.12
TGAAGAGGGG | 0.994 ± 0.012
TGAAGATGTG | 0.993 ± 0.02
TGAAGCCTAC | 2.57 ± 0.28
TGAAGGACCG | 0.952 ± 0.026
TGAAGGCTTT | 1.01 ± 0.052
TGAAGGGAAC | 1.06 ± 0.13
TGAAGGGACG | 1.02 ± 0.015
TGAAGGGGCT | 0.9833 ± 0.0052
TGAAGGTAAC | 0.98 ± 0.012
TGAAGTGAAC | 1.17 ± 0.22
TGAAGTTCTT | 0.965 ± 0.011
TGAATAAAGT | 0.978 ± 0.021
TGAATAAATT | 1.02 ± 0.015
TGAATAGAAC | 1.01 ± 0.015
TGAATCATGG | 0.972 ± 0.022
TGAATGACGG | 0.993 ± 0.026

Sequence | switch fluorescence ratio
TGAATGAGAT | 0.967 ± 0.014
TGAATGATTG | 0.995 ± 0.013
TGAATGATTT | 0.967 ± 0.027
TGAATGGGGG | 1.01 ± 0.045
TGAATGTTTG | 1.01 ± 0.036
TGAATTATAG | 1 ± 0.015
TGAATTGGTG | 1.031 ± 0.0055
TGAATTTAGA | 0.986 ± 0.025
TGAATTTAGC | 1 ± 0.035
TGAATTTAGT | 0.9729 ± 0.0089
TGAATTTATA | 1.024 ± 0.0093
TGAATTTATT | 1 ± 0.015
TGAATTTTAG | 0.991 ± 0.01
TGAATTTTTG | 0.989 ± 0.028
TGACAAGTGG | 1.01 ± 0.015
TGACAGTTGG | 1.017 ± 0.0055
TGACATGGTG | 0.976 ± 0.018
TGACCAATGT | 1 ± 0.028
TGACCGAAAC | 1.2 ± 0.051
TGACCGCGGA | 1.11 ± 0.039
TGACCTGCAC | 1.51 ± 0.034
TGACGAAACT | 1.35 ± 0.33
TGACGAAGGA | 1.23 ± 0.3
TGACGACCGC | 3.33 ± 0.48
TGACGAGGGG | 0.967 ± 0.031

Sequence | switch fluorescence ratio
TGACGCAGGT | 1.38 ± 0.04
TGACGCGCGT | 1.014 ± 0.0018
TGACGGAGGC | 1.06 ± 0.051
TGACGGCCAG | 1.01 ± 0.013
TGACGGGTTT | 1.06 ± 0.12
TGACGTTATC | 1.18 ± 0.025
TGACGTTCAG | 0.996 ± 0.02
TGACTGCTGG | 1.01 ± 0.027
TGACTGGGAA | 1.06 ± 0.091
TGAGAAGGGG | 0.991 ± 0.041
TGAGACAATA | 1.1 ± 0.011
TGAGAGAAGT | 0.968 ± 0.071
TGAGAGAGAA | 1.01 ± 0.019
TGAGAGATTT | 0.984 ± 0.011
TGAGAGGCGA | 1.01 ± 0.011
TGAGAGTAAC | 0.946 ± 0.07
TGAGAGTTTA | 1.024 ± 0.0062
TGAGATTAAA | 1.01 ± 0.0098
TGAGATTTGT | 1.06 ± 0.12
TGAGCAGAGG | 1.04 ± 0.015
TGAGCAGTTG | 1.06 ± 0.12
TGAGCATAGT | 1.026 ± 0.0023
TGAGCCCACG | 1.027 ± 0.0039
TGAGCTTTTT | 0.993 ± 0.03
TGAGGAAAGA | 0.988 ± 0.035

Sequence | switch fluorescence ratio
TGAGGAAGGG | 1.04 ± 0.099
TGAGGAATGT | 1.0157 ± 0.00058
TGAGGACCCT | 1.02 ± 0.025
TGAGGCAAGG | 1.69 ± 0.47
TGAGGCGGGT | 1.05 ± 0.016
TGAGGGAATT | 1.01 ± 0.018
TGAGGGATGT | 1.04 ± 0.059
TGAGGGGAGT | 0.9908 ± 0.0067
TGAGGGGATA | 1.01 ± 0.025
TGAGGGGGAC | 1.02 ± 0.087
TGAGGGGGTT | 0.997 ± 0.049
TGAGGGGTAG | 0.988 ± 0.05
TGAGGGTAAG | 1.13 ± 0.21
TGAGGGTTCT | 0.979 ± 0.02
TGAGGTATG | 0.971 ± 0.046
TGAGGTATTA | 1.0075 ± 0.00077
TGAGGTGGTG | 1.01 ± 0.0074
TGAGGTGTTG | 1.01 ± 0.063
TGAGGTTGGC | 1.01 ± 0.023
TGAGTAACAG | 0.981 ± 0.012
TGAGTAATTT | 1.01 ± 0.037
TGAGTACGTC | 1.06 ± 0.14
TGAGTCAGTG | 1.0116 ± 0.00046
TGAGTCCATT | 0.985 ± 0.018
TGAGTCGCGT | 1.01 ± 0.013

— the supplement of paper PMC10126150
